From patent US20140213531A1 (POLYPHOR, published 2014)
Bridges are numbered along the chain shown (N, C = ends). [ ]: non-standard residue; d: D form. AlloThr = allo threonine

T1: CathepsinG, from human neutrophils (human, UniProt P08311 21-244)
T1 sequence (looked up): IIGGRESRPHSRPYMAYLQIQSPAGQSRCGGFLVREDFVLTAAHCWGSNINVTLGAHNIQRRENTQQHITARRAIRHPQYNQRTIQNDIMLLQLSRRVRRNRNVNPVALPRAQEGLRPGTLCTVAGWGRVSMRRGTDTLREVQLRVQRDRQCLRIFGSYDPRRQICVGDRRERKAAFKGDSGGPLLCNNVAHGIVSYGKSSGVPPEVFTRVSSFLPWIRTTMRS

T2: Elastase from human neutrophils (human, UniProt P08246 30-247, limits assumed)
T2 sequence (looked up): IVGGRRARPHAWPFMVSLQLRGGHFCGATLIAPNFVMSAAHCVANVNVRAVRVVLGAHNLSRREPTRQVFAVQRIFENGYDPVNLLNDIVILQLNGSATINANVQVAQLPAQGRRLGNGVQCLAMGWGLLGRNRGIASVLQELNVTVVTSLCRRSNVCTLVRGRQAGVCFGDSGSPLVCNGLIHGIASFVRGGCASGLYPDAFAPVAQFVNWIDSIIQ

T3: Chymase, from human skin (human, UniProt P23946 22-247)
T3 sequence (looked up): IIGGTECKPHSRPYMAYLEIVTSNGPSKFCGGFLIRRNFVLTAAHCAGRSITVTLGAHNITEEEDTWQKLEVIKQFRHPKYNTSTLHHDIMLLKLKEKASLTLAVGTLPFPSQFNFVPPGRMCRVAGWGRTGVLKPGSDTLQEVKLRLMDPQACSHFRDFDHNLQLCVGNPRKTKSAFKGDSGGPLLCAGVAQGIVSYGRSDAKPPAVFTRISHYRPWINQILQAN


Tests used:
Assay in all cases: cell-based or functional assay
[1] = biological target: T1, CathepsinG, from human neutrophils
[2] = biological target: T2, Elastase from human neutrophils
[3] = biological target: Trypsin, Iodination grade, from human pancreas (human, UniProt P07477 24-247)
[4] = biological target: Chymotrypsin, from human pancreas (human, UniProt P17538 19-263)
Chymotrypsin, from human pancreas, sequence (P17538 19-263): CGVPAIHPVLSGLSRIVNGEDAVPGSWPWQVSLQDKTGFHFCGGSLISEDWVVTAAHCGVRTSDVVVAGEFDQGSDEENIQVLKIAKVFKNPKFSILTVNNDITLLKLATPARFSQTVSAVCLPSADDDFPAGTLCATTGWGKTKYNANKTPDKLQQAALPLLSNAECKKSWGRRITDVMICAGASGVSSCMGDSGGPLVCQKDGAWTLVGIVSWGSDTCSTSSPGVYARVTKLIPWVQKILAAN

Chymase, from human skin = biological target: T3, Chymase, from human skin
[5] = biological target: Thrombin, from Human Plasma, high activity (human, UniProt P00734 328-622)
[6] = biological target: Coagulation Factor Xa, from human plasma (human, UniProt P00742 41-488, limits assumed)
Coagulation Factor Xa, from human plasma, sequence (P00742 41-488 limits assumed): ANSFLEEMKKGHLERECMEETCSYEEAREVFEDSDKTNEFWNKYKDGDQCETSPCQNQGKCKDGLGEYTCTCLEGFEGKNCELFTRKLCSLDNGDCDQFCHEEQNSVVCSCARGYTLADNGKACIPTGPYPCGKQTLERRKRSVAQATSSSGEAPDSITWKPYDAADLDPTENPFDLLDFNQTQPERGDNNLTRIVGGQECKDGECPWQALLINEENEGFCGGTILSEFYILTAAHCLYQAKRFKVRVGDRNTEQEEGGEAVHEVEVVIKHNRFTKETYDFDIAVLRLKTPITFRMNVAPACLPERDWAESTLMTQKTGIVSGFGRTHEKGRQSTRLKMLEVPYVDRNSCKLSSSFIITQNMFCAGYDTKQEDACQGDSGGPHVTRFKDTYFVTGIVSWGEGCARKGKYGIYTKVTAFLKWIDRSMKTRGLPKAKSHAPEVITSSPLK

[7] = biological target: Urokinase from human urine (human, UniProt P00749 21-431, limits assumed)
[8] = biological target: Tryptase, from human lung (human, UniProt Q15661 31-275, limits assumed)
Tryptase, from human lung, sequence (Q15661 31-275 limits assumed): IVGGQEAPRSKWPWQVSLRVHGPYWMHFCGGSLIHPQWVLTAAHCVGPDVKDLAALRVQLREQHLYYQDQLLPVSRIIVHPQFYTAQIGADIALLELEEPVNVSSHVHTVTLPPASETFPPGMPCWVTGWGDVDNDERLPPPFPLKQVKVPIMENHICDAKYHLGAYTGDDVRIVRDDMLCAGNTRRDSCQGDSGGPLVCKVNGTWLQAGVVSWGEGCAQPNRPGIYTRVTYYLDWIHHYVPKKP

Binder	IC50 [1] [nmol]	IC50 [2] [nmol]	% inhibition at 100 µM [3] [%]	% inhibition at 100 µM [4] [%]	% inhibition at 100 µM (Chymase, from human skin) [%]	% inhibition at 100 µM [5] [%]	% inhibition at 100 µM [6] [%]	% inhibition at 100 µM [7] [%]	% inhibition at 100 µM [8] [%]
FCTKSDPPICD (HELM PEPTIDE1{F.C.T.K.S.D.P.P.I.C.D.[dP].P}$PEPTIDE1,PEPTIDE1,2:R3-10:R3|PEPTIDE1,PEPTIDE1,1:R1-13:R2$$$V2.0; SMILES CC[C@H](C)[C@@H]1NC(=O)[C@@H]2CCCN2C(=O)[C@@H]2CCCN2C(=O)[C@H](CC(=O)O)NC(=O)[C@H](CO)NC(=O)[C@H](CCCCN)NC(=O)[C@H]([C@@H](C)O)NC(=O)[C@@H]2CSSC[C@H](NC1=O)C(=O)N[C@@H](CC(=O)O)C(=O)N1CCC[C@@H]1C(=O)N1CCC[C@H]1C(=O)N[C@@H](Cc1ccccc1)C(=O)N2) [Example 2]	84	> 100000	92	2.9	0	9.2	5.3	0.9	39.6
FCTKSEPPICT (HELM PEPTIDE1{F.C.T.K.S.E.P.P.I.C.T.[dP].P}$PEPTIDE1,PEPTIDE1,2:R3-10:R3|PEPTIDE1,PEPTIDE1,1:R1-13:R2$$$V2.0; SMILES CC[C@H](C)[C@@H]1NC(=O)[C@@H]2CCCN2C(=O)[C@@H]2CCCN2C(=O)[C@H](CCC(=O)O)NC(=O)[C@H](CO)NC(=O)[C@H](CCCCN)NC(=O)[C@H]([C@@H](C)O)NC(=O)[C@@H]2CSSC[C@H](NC1=O)C(=O)N[C@@H]([C@@H](C)O)C(=O)N1CCC[C@@H]1C(=O)N1CCC[C@H]1C(=O)N[C@@H](Cc1ccccc1)C(=O)N2) [Example 1]	86	> 100000	92.6	7.8	0	1.1	5.7	5.7	0
cyclo(ICTKSDPAICR[dP]P) (disulfide 2-10) [Example 14]	52	> 100000	–	0	42.3	8.7	6	5.4	84.2
cyclo(FCTK[AlloThr]DPPICS[dP]P) (disulfide 2-10) [Example 24]	71	> 100000	97	1	1.2	3.5	30	5.1	0
FCTKSDPPICN (HELM PEPTIDE1{F.C.T.K.S.D.P.P.I.C.N.[dP].P}$PEPTIDE1,PEPTIDE1,2:R3-10:R3|PEPTIDE1,PEPTIDE1,1:R1-13:R2$$$V2.0; SMILES CC[C@H](C)[C@@H]1NC(=O)[C@@H]2CCCN2C(=O)[C@@H]2CCCN2C(=O)[C@H](CC(=O)O)NC(=O)[C@H](CO)NC(=O)[C@H](CCCCN)NC(=O)[C@H]([C@@H](C)O)NC(=O)[C@@H]2CSSC[C@H](NC1=O)C(=O)N[C@@H](CC(N)=O)C(=O)N1CCC[C@@H]1C(=O)N1CCC[C@H]1C(=O)N[C@@H](Cc1ccccc1)C(=O)N2) [Example 3]	51	> 100000	92	0	1	0	4	4	68
YCTKSDPPICY (HELM PEPTIDE1{Y.C.T.K.S.D.P.P.I.C.Y.[dP].P}$PEPTIDE1,PEPTIDE1,2:R3-10:R3|PEPTIDE1,PEPTIDE1,1:R1-13:R2$$$V2.0; SMILES CC[C@H](C)[C@@H]1NC(=O)[C@@H]2CCCN2C(=O)[C@@H]2CCCN2C(=O)[C@H](CC(=O)O)NC(=O)[C@H](CO)NC(=O)[C@H](CCCCN)NC(=O)[C@H]([C@@H](C)O)NC(=O)[C@@H]2CSSC[C@H](NC1=O)C(=O)N[C@@H](Cc1ccc(O)cc1)C(=O)N1CCC[C@@H]1C(=O)N1CCC[C@H]1C(=O)N[C@@H](Cc1ccc(O)cc1)C(=O)N2) [Example 26]	49	> 100000	84	2.2	0	3	6	3.1	66.4

Now from value to binder:

IC50 [1] [nmol]	IC50 [2] [nmol]	% inhibition at 100 µM [3] [%]	% inhibition at 100 µM [4] [%]	% inhibition at 100 µM (Chymase, from human skin) [%]	% inhibition at 100 µM [5] [%]	% inhibition at 100 µM [6] [%]	% inhibition at 100 µM [7] [%]	% inhibition at 100 µM [8] [%]	Binder
39	> 100000	95	32	0	12	6	1	0	XCTKSDPPICT (HELM PEPTIDE1{[O=C([C@H](CCc1ccccc1)N[*:1])[*:2]].C.T.K.S.D.P.P.I.C.T.[dP].P}$PEPTIDE1,PEPTIDE1,2:R3-10:R3|PEPTIDE1,PEPTIDE1,1:R1-13:R2$$$V2.0; SMILES CC[C@H](C)[C@@H]1NC(=O)[C@@H]2CCCN2C(=O)[C@@H]2CCCN2C(=O)[C@H](CC(=O)O)NC(=O)[C@H](CO)NC(=O)[C@H](CCCCN)NC(=O)[C@H]([C@@H](C)O)NC(=O)[C@@H]2CSSC[C@H](NC1=O)C(=O)N[C@@H]([C@@H](C)O)C(=O)N1CCC[C@@H]1C(=O)N1CCC[C@H]1C(=O)N[C@@H](CCc1ccccc1)C(=O)N2) [Example 28]
31	> 100000	96	4	1	0	0	1	11	XCTKSDPPICT (HELM PEPTIDE1{[O=C([C@@H](N[*:1])C1CCCCC1)[*:2]].C.T.K.S.D.P.P.I.C.T.[dP].P}$PEPTIDE1,PEPTIDE1,2:R3-10:R3|PEPTIDE1,PEPTIDE1,1:R1-13:R2$$$V2.0; SMILES CC[C@H](C)[C@@H]1NC(=O)[C@@H]2CCCN2C(=O)[C@@H]2CCCN2C(=O)[C@H](CC(=O)O)NC(=O)[C@H](CO)NC(=O)[C@H](CCCCN)NC(=O)[C@H]([C@@H](C)O)NC(=O)[C@@H]2CSSC[C@H](NC1=O)C(=O)N[C@@H]([C@@H](C)O)C(=O)N1CCC[C@@H]1C(=O)N1CCC[C@H]1C(=O)N[C@@H](C1CCCCC1)C(=O)N2) [Example 38]
34	> 100000	98	15	12	10	8	15	76	XCTKSDPPICN (HELM PEPTIDE1{[Nc1ccc(C[C@H](N[*:1])C(=O)[*:2])cc1].C.T.K.S.D.P.P.I.C.N.[dP].P}$PEPTIDE1,PEPTIDE1,2:R3-10:R3|PEPTIDE1,PEPTIDE1,1:R1-13:R2$$$V2.0; SMILES CC[C@H](C)[C@@H]1NC(=O)[C@@H]2CCCN2C(=O)[C@@H]2CCCN2C(=O)[C@H](CC(=O)O)NC(=O)[C@H](CO)NC(=O)[C@H](CCCCN)NC(=O)[C@H]([C@@H](C)O)NC(=O)[C@@H]2CSSC[C@H](NC1=O)C(=O)N[C@@H](CC(N)=O)C(=O)N1CCC[C@@H]1C(=O)N1CCC[C@H]1C(=O)N[C@@H](Cc1ccc(N)cc1)C(=O)N2) [Example 31]
38	> 100000	94	7	0	2	0	2	34	XCTKSDPPICD (HELM PEPTIDE1{[O=C([C@@H](N[*:1])C1CCCCC1)[*:2]].C.T.K.S.D.P.P.I.C.D.[dP].P}$PEPTIDE1,PEPTIDE1,2:R3-10:R3|PEPTIDE1,PEPTIDE1,1:R1-13:R2$$$V2.0; SMILES CC[C@H](C)[C@@H]1NC(=O)[C@@H]2CCCN2C(=O)[C@@H]2CCCN2C(=O)[C@H](CC(=O)O)NC(=O)[C@H](CO)NC(=O)[C@H](CCCCN)NC(=O)[C@H]([C@@H](C)O)NC(=O)[C@@H]2CSSC[C@H](NC1=O)C(=O)N[C@@H](CC(=O)O)C(=O)N1CCC[C@@H]1C(=O)N1CCC[C@H]1C(=O)N[C@@H](C1CCCCC1)C(=O)N2) [Example 39]
